# Tests used:
# [1] = molecular target: T1, human ETA receptor (human) (UniProt P25101)
# T1 sequence: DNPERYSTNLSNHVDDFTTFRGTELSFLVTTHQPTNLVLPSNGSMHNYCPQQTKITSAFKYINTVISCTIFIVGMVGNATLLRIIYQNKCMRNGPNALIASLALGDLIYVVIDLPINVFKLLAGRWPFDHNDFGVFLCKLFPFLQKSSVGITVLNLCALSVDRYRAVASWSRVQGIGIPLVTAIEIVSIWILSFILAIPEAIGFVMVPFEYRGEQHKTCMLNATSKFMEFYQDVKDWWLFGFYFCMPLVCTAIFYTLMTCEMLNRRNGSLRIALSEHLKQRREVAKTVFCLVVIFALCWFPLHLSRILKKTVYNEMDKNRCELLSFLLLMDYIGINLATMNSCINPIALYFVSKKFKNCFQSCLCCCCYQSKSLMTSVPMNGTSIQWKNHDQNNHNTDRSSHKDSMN
# [2] = molecular target: T2, human ETA receptor fused to SmBiT (ETA-SmBiT) (human) (UniProt P25101)
# T2 sequence: T1 sequence
# [3] = molecular target: human ETB receptor, wild type, fused to SmBiT (ETB-SmBiT) (human) (UniProt P24530)
# [4] = molecular target: human ETB receptor, wild type, construct with an internal FLAG epitope tag (human) (UniProt P24530)
# [5] = molecular target: thermostabilized human ETB receptor (ETB-Y5), construct with an internal FLAG epitope tag (human) (UniProt P24530)
# [6] = molecular target: thermostabilized human ETB receptor (ETB-Y5) fused to SmBiT (human) (UniProt P24530)
# [7] = molecular target: human ETB receptor L252H I254T double mutant, construct with an internal FLAG epitope tag (human) (UniProt P24530)
substance,measurement,setting,value
endothelin-3 (from UniProt P14138 97-117) (peptide),"EC50 against that of ET-1, TGFα shedding assay",[1],5 fold
same,"EC50 against that of ET-1, NanoBiT β-arrestin recruitment assay",[2],5 fold
"IRL1620 (N-Suc-[E9, A11, 15] ET-1(8-21)) (peptide)","Emax, NanoBiT β-arrestin recruitment assay, percent of that of ET-1",[3],87%
same,"AP-TGFα release (TGFα shedding assay), no activation at the concentration tested",[1],> 320 nM
same,"EC50, AP-TGFα release (TGFα shedding assay, G-protein activation), HEK293 cells",[4],0.11 nM
same,"Emax, TGFα shedding assay, percent of that of ET-1",[4],88%
same,"Emax, TGFα shedding assay, percent of that of ET-1",[5],84%
same,"Emax, NanoBiT β-arrestin recruitment assay, percent of that of ET-1",[6],85%
same,"change of EC50 against the wild type receptor, TGFα shedding assay",[7],2 fold

# From article doi:10.1101/343756
